Results on 91 sequences are retold here after the supplement of paper PMC9112550, “Optimization of the antimicrobial peptide Bac7 by deep mutational scanning” (BMC Biology, 2022).

This data set relates to Escherichia coli TOP10. Description: shrunken log2 fold change of peptide-encoding DNA abundance (4.5 h post-induction vs induction); higher = less antimicrobial activity (less host growth inhibition). The conditions noted are these: time post-induction: 4.5 h; library: site-saturation at positions 5, 18, 19, 20.
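Note: peptides expressed intracellularly from a pBAD plasmid library in pooled LB shake-flask culture, induced with 0.3% L-arabinose, DNA abundance read by NGS, three biological replicates, DESeq2 with apeglm shrinkage.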

RRIRQRPPRLPRPRPRPMFLPRP: the “shrunken log2 fold change” value was -0.38.

For the sequence RRIRKRPPRLPRPRPRPQNWPRP, the “shrunken log2 fold change” value is 0.508.

As to RRIRDRPPRLPRPRPRPLMEPRP, the “shrunken log2 fold change” value was 0.117.

With RRIRDRPPRLPRPRPRPAMEPRP, the “shrunken log2 fold change” value was -0.0517.

As to RRIRQRPPRLPRPRPRPTFCPRP, the “shrunken log2 fold change” value was -0.0744.

Consider RRIRWRPPRLPRPRPRPSKSPRP, for which the “shrunken log2 fold change” value was -0.0449.

In the case of RRIRPRPPRLPRPRPRPMFWPRP, the “shrunken log2 fold change” value was -0.0858.

Consider RRIRPRPPRLPRPRPRPTNFPRP, for which the “shrunken log2 fold change” value was 0.221.

In the case of RRIRARPPRLPRPRPRPIQTPRP, the “shrunken log2 fold change” value was -0.0208.

As to RRIRHRPPRLPRPRPRPLHFPRP, the “shrunken log2 fold change” value was -0.0265.

On to RRIRHRPPRLPRPRPRPKMYPRP, for which the “shrunken log2 fold change” value is -0.289.

In the case of RRIRIRPPRLPRPRPRPICHPRP, the “shrunken log2 fold change” value is -0.326.

Consider RRIRVRPPRLPRPRPRPSINPRP, for which the “shrunken log2 fold change” value is -0.243.

RRIRNRPPRLPRPRPRPFSFPRP: the “shrunken log2 fold change” value is -0.186.

For RRIRFRPPRLPRPRPRPDTRPRP, the “shrunken log2 fold change” value was -0.324.

RRIRSRPPRLPRPRPRPPLQPRP: the “shrunken log2 fold change” value came out at 0.504.

For the sequence RRIRGRPPRLPRPRPRPINPPRP, the “shrunken log2 fold change” value is -0.0416.

For RRIRPRPPRLPRPRPRPYPPPRP, the “shrunken log2 fold change” value was -0.537.

Turning to RRIRWRPPRLPRPRPRPVNSPRP, the “shrunken log2 fold change” value is 0.0541.

On to RRIRMRPPRLPRPRPRPPVVPRP, for which the “shrunken log2 fold change” value is 0.753.

RRIRHRPPRLPRPRPRPQWMPRP: the “shrunken log2 fold change” value was 0.0263.

Take RRIRMRPPRLPRPRPRPRYQPRP: the “shrunken log2 fold change” value is -0.0321.

Turning to RRIRPRPPRLPRPRPRPLACPRP, the “shrunken log2 fold change” value amounted to 0.265.

As to RRIRSRPPRLPRPRPRPPDNPRP, the “shrunken log2 fold change” value is -0.0697.

Take RRIRERPPRLPRPRPRPYDFPRP: the “shrunken log2 fold change” value was -0.0231.

With RRIRPRPPRLPRPRPRPIERPRP, the “shrunken log2 fold change” value is 0.157.

For RRIRRRPPRLPRPRPRPRDHPRP, the “shrunken log2 fold change” value is 0.397.

With RRIRTRPPRLPRPRPRPPMQPRP, the “shrunken log2 fold change” value is 0.0806.

On to RRIRWRPPRLPRPRPRPVSAPRP, for which the “shrunken log2 fold change” value worked out at 0.316.

As for RRIRERPPRLPRPRPRPPLPPRP, the “shrunken log2 fold change” value was 0.151.

For RRIRIRPPRLPRPRPRPPQPPRP, the “shrunken log2 fold change” value was 0.343.

Turning to RRIRARPPRLPRPRPRPLMFPRP, the “shrunken log2 fold change” value came out at 0.187.

As for RRIRGRPPRLPRPRPRPIRVPRP, the “shrunken log2 fold change” value was -0.189.

Consider RRIRMRPPRLPRPRPRPRRRPRP, for which the “shrunken log2 fold change” value came out at 1.53.

Consider RRIRPRPPRLPRPRPRPGRVPRP, for which the “shrunken log2 fold change” value is 0.318.

As for RRIRQRPPRLPRPRPRPINSPRP, the “shrunken log2 fold change” value is -0.413.

With RRIRSRPPRLPRPRPRPRDLPRP, the “shrunken log2 fold change” value was 0.254.

RRIRRRPPRLPRPRPRPIAQPRP: the “shrunken log2 fold change” value is 0.129.

With RRIRLRPPRLPRPRPRPCMSPRP, the “shrunken log2 fold change” value amounted to 0.0623.

For RRIRSRPPRLPRPRPRPLELPRP, the “shrunken log2 fold change” value is 0.12.

RRIRGRPPRLPRPRPRPIMLPRP: the “shrunken log2 fold change” value worked out at 2.36.

With RRIRNRPPRLPRPRPRPSHFPRP, the “shrunken log2 fold change” value was -0.647.

Turning to RRIRERPPRLPRPRPRPGMWPRP, the “shrunken log2 fold change” value came out at 0.178.

In the case of RRIRARPPRLPRPRPRPWIQPRP, the “shrunken log2 fold change” value is -0.103.

In the case of RRIRRRPPRLPRPRPRPRFRPRP, the “shrunken log2 fold change” value turned out to be 0.455.

As to RRIRARPPRLPRPRPRPAADPRP, the “shrunken log2 fold change” value stood at 1.13.

As to RRIRTRPPRLPRPRPRPHLIPRP, the “shrunken log2 fold change” value was 2.85.

With RRIRKRPPRLPRPRPRPSTRPRP, the “shrunken log2 fold change” value is -0.114.

In the case of RRIRWRPPRLPRPRPRPRIWPRP, the “shrunken log2 fold change” value is -0.0288.

Turning to RRIRWRPPRLPRPRPRPKIGPRP, the “shrunken log2 fold change” value was -0.0273.

Consider RRIRCRPPRLPRPRPRPVYQPRP, for which the “shrunken log2 fold change” value was -0.783.

As for RRIRERPPRLPRPRPRPRDWPRP, the “shrunken log2 fold change” value is 0.311.

As to RRIRPRPPRLPRPRPRPLLMPRP, the “shrunken log2 fold change” value is -0.185.

RRIRLRPPRLPRPRPRPPQWPRP: the “shrunken log2 fold change” value worked out at 0.322.

As for RRIRTRPPRLPRPRPRPSLNPRP, the “shrunken log2 fold change” value was -0.555.

Turning to RRIRRRPPRLPRPRPRPDDKPRP, the “shrunken log2 fold change” value stood at 0.0703.

Take RRIRHRPPRLPRPRPRPMAWPRP: the “shrunken log2 fold change” value was 0.0581.

With RRIRFRPPRLPRPRPRPHGYPRP, the “shrunken log2 fold change” value was -0.707.

As for RRIRFRPPRLPRPRPRPWGAPRP, the “shrunken log2 fold change” value was found to be 0.0596.

As to RRIRMRPPRLPRPRPRPELSPRP, the “shrunken log2 fold change” value amounted to 0.0644.

As for RRIRNRPPRLPRPRPRPVCMPRP, the “shrunken log2 fold change” value was -0.0349.

On to RRIRPRPPRLPRPRPRPRRHPRP, for which the “shrunken log2 fold change” value is 0.241.

With RRIRERPPRLPRPRPRPESKPRP, the “shrunken log2 fold change” value was -0.145.

On to RRIRHRPPRLPRPRPRPFCNPRP, for which the “shrunken log2 fold change” value amounted to 0.00929.

For the sequence RRIRYRPPRLPRPRPRPFKVPRP, the “shrunken log2 fold change” value was -0.123.

For the sequence RRIRLRPPRLPRPRPRPFKAPRP, the “shrunken log2 fold change” value turned out to be 0.181.

Take RRIRNRPPRLPRPRPRPTDIPRP: the “shrunken log2 fold change” value is -0.296.

For RRIRHRPPRLPRPRPRPCWPPRP, the “shrunken log2 fold change” value is -0.106.

As for RRIRPRPPRLPRPRPRPSEDPRP, the “shrunken log2 fold change” value amounted to 0.485.

For RRIRGRPPRLPRPRPRPKWIPRP, the “shrunken log2 fold change” value worked out at 0.118.

For the sequence RRIRMRPPRLPRPRPRPIVNPRP, the “shrunken log2 fold change” value was -0.0202.

RRIRNRPPRLPRPRPRPYRGPRP: the “shrunken log2 fold change” value was -0.0134.

For the sequence RRIRRRPPRLPRPRPRPNTDPRP, the “shrunken log2 fold change” value is -0.106.

RRIRCRPPRLPRPRPRPLWTPRP: the “shrunken log2 fold change” value was -0.00711.

As for RRIRTRPPRLPRPRPRPGICPRP, the “shrunken log2 fold change” value was -0.0258.

Turning to RRIRRRPPRLPRPRPRPDKNPRP, the “shrunken log2 fold change” value is 0.0344.

As to RRIRRRPPRLPRPRPRPPYHPRP, the “shrunken log2 fold change” value worked out at 0.124.

Consider RRIRYRPPRLPRPRPRPLPNPRP, for which the “shrunken log2 fold change” value is -0.296.

Regarding RRIRYRPPRLPRPRPRPGSAPRP, the “shrunken log2 fold change” value is -0.24.

Take RRIRFRPPRLPRPRPRPNQKPRP: the “shrunken log2 fold change” value is -0.159.

For RRIRRRPPRLPRPRPRPLMLPRP, the “shrunken log2 fold change” value is -0.108.

Turning to RRIRFRPPRLPRPRPRPIIFPRP, the “shrunken log2 fold change” value is -0.621.

With RRIRPRPPRLPRPRPRPFEVPRP, the “shrunken log2 fold change” value is 0.0802.

Take RRIRGRPPRLPRPRPRPITMPRP: the “shrunken log2 fold change” value was -0.0891.

For RRIRQRPPRLPRPRPRPSHEPRP, the “shrunken log2 fold change” value is -0.0209.

In the case of RRIRERPPRLPRPRPRPCTCPRP, the “shrunken log2 fold change” value is -0.00884.

As for RRIRTRPPRLPRPRPRPRQEPRP, the “shrunken log2 fold change” value was found to be 0.0565.

Regarding RRIRDRPPRLPRPRPRPYTFPRP, the “shrunken log2 fold change” value is -0.0443.

With RRIRRRPPRLPRPRPRPSHGPRP, the “shrunken log2 fold change” value was 0.145.

For the sequence RRIRRRPPRLPRPRPRPEHWPRP, the “shrunken log2 fold change” value is 0.315.

Turning to RRIRGRPPRLPRPRPRPNVLPRP, the “shrunken log2 fold change” value is -0.0548.
